Fewer inactive variants are shown than the library holds.
B1: TPR 5TU (parent)
chain: GGAUCUUCUCGAUCUAACAAAAAAGACAAAUCUGCCACAAAGCUUGAGAGCAUCUUCGGAUGCAGAGGCGGCAGCCUUCGGUGGCGCGAUAGCGCCAACGUUCUCAACUAUGACACGCAAAACGCGUGCUCCGUUGAAUGGAGUUUAUCAUG

Variants of: B1
Assay: polymerase ribozyme fitness, log enrichment relative to wild type (log ratio); higher = more active; in vitro selection for triplet polymerase activity
Summary of the method: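 Streptavidin-bead capture of gel-excised extended constructs, followed by RT-PCR, closed a single triplicate in vitro selection round. That round began by annealing PCR-built, transcribed mutant libraries of each subunit of a heterodimeric triplet polymerase ribozyme with a biotinylated primer, the partner subunit and triplets, then incubating them frozen at −7 °C. After Illumina sequencing of inputs and outputs, genotypes needed ≥10 input reads and ≥1 read per output. Fitness is the base-2 logarithm of genotype enrichment over wild-type enrichment, using inverse-variance-weighted replicate averages.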

Row | Variant | polymerase ribozyme fitness (log ratio)
1 | U15C A41G U61G C99U | -2.24
2 | A16G A30U U44A G81A C95U C125G | ≤ -4.2
3 | A16G C38U U82A C96G | -1
4 | A16G C27G C54G G83A G86U A97U C105U U146A | ≤ -4.2
5 | U15G G59U U135G | -3.96
6 | A16G G34U A52U A60G G88U A91U G140C | -4.14
7 | U15G A16C A21U A26C C103U | -3.98
8 | A16G C57G C76A | -1.31
9 | A16C G83U | -1.56
10 | A16C U31A U104G A142C | -2.77
11 | A16C A17G C76G C96A A107G | ≤ -4.2
12 | U15G C32A G88A A97G | ≤ -4.2
13 | A16G G48A C57A C76U A89C C95A C116G C131A G136C | ≤ -4.2
14 | U15C C93U | -0.331
15 | A16G U56A | -1.7
16 | A16C C36G G92A C108A A113G U139A | ≤ -4.2
17 | A16G A19U C93A | -3.75
18 | U15G G152U | -2.98
19 | A16C C72U U82A C85U A91U | ≤ -4.2
20 | A16G A28U C87A A107C | ≤ -4.2
21 | A16C U82A C95G G141A | -3.41

Row | Variant | polymerase ribozyme fitness (log ratio)
22 | A16C G50A C85U | -3.26
23 | A16C A19U C85U G117U A150U | 0.0374
24 | A16G G46U U55A C85A C105A | -4.14
25 | A16U A20U G58C G86A | -3.79
26 | A16G A49U G62A G92A C96A | ≤ -4.2
27 | U15C A23G U82A C93G G126A | -4.14
28 | U15G C38U C87U U104A | -1.04
29 | A16G A29G A47U C57U A73C C93G A98G A115G | ≤ -4.2
30 | U15G A22G U56G C96U A121U | -0.722
31 | A16G C76U C79A G83U G152U | ≤ -4.2
32 | A16C A19G G34A G71A C87G U145A U146C | ≤ -4.2
33 | A16U A22C C51U U55A G74A C99G C114A C131U | ≤ -4.2
34 | A16C C32G U56G C63G | ≤ -4.2
35 | U15G C38U U55A U56A C57G C85U A147C | -2.05
36 | A16C A24C G50C C85U G143U | ≤ -4.2
37 | A16C U33A C54A C85A A91G C125G G133U | ≤ -4.2
38 | U15G A21C A26U C38G G92A A113C | ≤ -4.2
39 | U15C U56G A113U | -0.657
40 | A16U A22C G59A C118A | -3.09
41 | U15G C36G U111G G124A G141C A150U | ≤ -4.2
42 | A16G A110G | -3.77

Row | Variant | polymerase ribozyme fitness (log ratio)
43 | A16C A66U A122C U139A A142U | ≤ -4.2
44 | U15G G25C C51A C96G C149G | ≤ -4.2
45 | A16C C18G U45G U61G | ≤ -4.2
46 | A16G A22U C85G G92A C93G C108G A113U G117C | ≤ -4.2
47 | A16G A17U A52C A91U C93U U111G C123U G124U G133A | ≤ -4.2
48 | U15G U55A | -0.257
49 | U15G A30G C54A | ≤ -4.2
50 | A16G C43U C51U G80C G117A A142C | ≤ -4.2
51 | U15C A24G A39G G83A C99G | ≤ -4.2
52 | A16G G34C C35A C54A C93A | ≤ -4.2
53 | A16U A20U U146A | -3.95
54 | A16G G86U C132U U135G | ≤ -4.2
55 | A16C C95U | -0.661
56 | A16G A40G G86C | ≤ -4.2
57 | U15C U145G | 0.506
58 | A16C G81A | -0.894
59 | U15G U53A | -0.774
60 | A16G G83A | -0.814
61 | A16G A28C C36A U44A G48C A49C C76G U77C A91U C103G | ≤ -4.2
62 | A16C C27A A30U C38G G48U G86U A110U C116G G141A | -4.02
63 | U15C U61A A89G A98G | -1.62

Row | Variant | polymerase ribozyme fitness (log ratio)
64 | A16C G86C A110G | ≤ -4.2
65 | U15G A21C G83U A89G C96G U127A | -4.13
66 | U15G A24U A60G G92U | 0.475
67 | U15G C57G C93A C99G | -4.06
68 | A16G A23U A29G A47C G50A C87G A106U U135C A147U | ≤ -4.2
69 | U15C U56A C79A G80U C96U C103A A107C U146A | ≤ -4.2
70 | A16C A89U A91U U127C | ≤ -4.2
71 | U15G U31G A40U C57A C95G C125U G140U | ≤ -4.2
72 | A16G A19G A23U A26C U44A U53A C87G C103A | -4.11
73 | A16G C18U U31G C35A C43A C95G C103U | ≤ -4.2
74 | U15C C54A C87U G94A A98U C125A | -3.98
75 | A16U A17U U44A C54U A66G A89G G140C | ≤ -4.2
76 | A16C C79A A91U C116A C149A | ≤ -4.2
77 | A16C C38U G80U C96G A142C U148G | ≤ -4.2
78 | A16C A21U A39C U44A U45A A49G G84A G126U | ≤ -4.2
79 | A16G G80A | -0.775
80 | A16G A91U C105G A115G | ≤ -4.2
81 | A16G U33G U55A C95U | -3.89
82 | A16G A98U | -1.65
83 | U15C C18A G83A C93U A122U | -1.53

From the RNAGym collection of RNA variant scans (doi:10.1073/pnas.2313332121)
